Assay results from the Human Domainome abundance scans (Beltran et al. 2025).
± gives the uncertainty stated by the source.

B1: Tripartite motif-containing protein 44, residues 174 to 218; numbered along this chain, Q96DX7 (parent)
chain: VAKRKCPDHGLDLSTYCQEDRQLICVLCPVIGAHQGHQLSTLDEA

Variants of: B1
Assay: abundance fitness (aPCA) (normalised: wild type 0, dead -1); higher = more abundant; growth selection in yeast, the domain comes from the species named
Conditions: Homo sapiens

Row | Variant | abundance fitness
1 | VAKRNCPDHGLDLSTYCQEDRQLICVLCPVIGAHQGHQLSTLDEA | -0.111 ± 0.07
2 | VAKRYCPDHGLDLSTYCQEDRQLICVLCPVIGAHQGHQLSTLDEA | -0.221 ± 0.06
3 | VAKRLCPDHGLDLSTYCQEDRQLICVLCPVIGAHQGHQLSTLDEA | -0.15 ± 0.028
4 | VAKRKCPDRGLDLSTYCQEDRQLICVLCPVIGAHQGHQLSTLDEA | -0.975 ± 0.041
5 | VAKRKCPDCGLDLSTYCQEDRQLICVLCPVIGAHQGHQLSTLDEA | -0.103 ± 0.032
6 | VAKRKCPDEGLDLSTYCQEDRQLICVLCPVIGAHQGHQLSTLDEA | -0.863 ± 0.046
7 | VAKRKCPDYGLDLSTYCQEDRQLICVLCPVIGAHQGHQLSTLDEA | -0.791 ± 0.076
8 | VAKRKCPDHGLDLSTYCQEDRQLECVLCPVIGAHQGHQLSTLDEA | -0.457 ± 0.03
9 | VAKRKCPDHGLDLSTYCQEDRQLDCVLCPVIGAHQGHQLSTLDEA | -0.427 ± 0.039
10 | VAKRKCPDHGLDLSTYCQEDRQLVCVLCPVIGAHQGHQLSTLDEA | -0.051 ± 0.026
11 | VAKRKCPDHGLDLSTYCQEDRQLHCVLCPVIGAHQGHQLSTLDEA | -0.312 ± 0.048
12 | VAKRKCPDHGLDLSTYCQEDRQLNCVLCPVIGAHQGHQLSTLDEA | -0.407 ± 0.048
13 | VAKRKCPDHGLDLSTYCQEDRQLSCVLCPVIGAHQGHQLSTLDEA | -0.31 ± 0.032
14 | VAKRKCPDHGLDLSTECQEDRQLICVLCPVIGAHQGHQLSTLDEA | -0.033 ± 0.031
15 | VAKRKCPDHGLDLSTPCQEDRQLICVLCPVIGAHQGHQLSTLDEA | -0.379 ± 0.038
16 | VAKRKCPFHGLDLSTYCQEDRQLICVLCPVIGAHQGHQLSTLDEA | -0.034 ± 0.041
17 | VAKRKCPDHGLDLSTYCQEDRQLICVLCPVIGAHQGQQLSTLDEA | -0.599 ± 0.043
18 | VAKRKCPDHGLDLSTYCQEDRQLICVLCPVIGAHQGAQLSTLDEA | -0.679 ± 0.032
19 | VAKRKCPDHGLDLSTYCQEDRQLICVLCPVIGAHQGCQLSTLDEA | -0.055 ± 0.033

Row | Variant | abundance fitness
20 | VAKRKEPDHGLDLSTYCQEDRQLICVLCPVIGAHQGHQLSTLDEA | -0.946 ± 0.087
21 | VAKRKKPDHGLDLSTYCQEDRQLICVLCPVIGAHQGHQLSTLDEA | -0.874 ± 0.073
22 | VAKRKTPDHGLDLSTYCQEDRQLICVLCPVIGAHQGHQLSTLDEA | -0.783 ± 0.072
23 | VAKRKQPDHGLDLSTYCQEDRQLICVLCPVIGAHQGHQLSTLDEA | -0.889 ± 0.068
24 | VAKRKCPDHGLDLSTYCQEDRQLIWVLCPVIGAHQGHQLSTLDEA | -1.02 ± 0.054
25 | VAKRKCPDHGLDLSTYCQEDRQLIEVLCPVIGAHQGHQLSTLDEA | -0.717 ± 0.041
26 | VAKRKCPDHGLDLSTYCQEDRQLICVLCIVIGAHQGHQLSTLDEA | -0.168 ± 0.049
27 | VAKRKCPDHGLDLSTYCQEDRQLICVLCMVIGAHQGHQLSTLDEA | -0.04 ± 0.034
28 | VAKRKCPDHGLDLSTYCQEDRQLICVLCHVIGAHQGHQLSTLDEA | -0.016 ± 0.038
29 | VAKRKCPDHGLDLSTYCQEDRALICVLCPVIGAHQGHQLSTLDEA | -0.019 ± 0.027
30 | VAKRKCPDHGLDLSTYCQEDRHLICVLCPVIGAHQGHQLSTLDEA | -0.044 ± 0.04
31 | VAKRKCPDHGLDLSTYCQEDRQMICVLCPVIGAHQGHQLSTLDEA | -0.004 ± 0.036
32 | VAKRKCTDHGLDLSTYCQEDRQLICVLCPVIGAHQGHQLSTLDEA | 0.065 ± 0.045
33 | VAKRKCFDHGLDLSTYCQEDRQLICVLCPVIGAHQGHQLSTLDEA | -0.321 ± 0.16
34 | VAKRKCNDHGLDLSTYCQEDRQLICVLCPVIGAHQGHQLSTLDEA | -0.565 ± 0.067
35 | VAKRKCADHGLDLSTYCQEDRQLICVLCPVIGAHQGHQLSTLDEA | -0.013 ± 0.029
36 | VAKRKCWDHGLDLSTYCQEDRQLICVLCPVIGAHQGHQLSTLDEA | -0.191 ± 0.035
37 | VAKRKCQDHGLDLSTYCQEDRQLICVLCPVIGAHQGHQLSTLDEA | 0.038 ± 0.039
38 | VAKRKCPDHGLGLSTYCQEDRQLICVLCPVIGAHQGHQLSTLDEA | -0.098 ± 0.031

Row | Variant | abundance fitness
39 | VAKRKCPDHGLHLSTYCQEDRQLICVLCPVIGAHQGHQLSTLDEA | 0.017 ± 0.17
40 | VAKRKCPDHGLMLSTYCQEDRQLICVLCPVIGAHQGHQLSTLDEA | -0.048 ± 0.048
41 | VAKRKCPDHGLTLSTYCQEDRQLICVLCPVIGAHQGHQLSTLDEA | -0.071 ± 0.038
42 | VAKRKCPDHGLALSTYCQEDRQLICVLCPVIGAHQGHQLSTLDEA | -0.117 ± 0.032
43 | VAKRKCPDHGLCLSTYCQEDRQLICVLCPVIGAHQGHQLSTLDEA | -0.366 ± 0.057
44 | VAKRKCPDHGLDLSTYCQEDRQLICVLCPVIGAHQGHQLSYLDEA | -0.098 ± 0.036
45 | VAKRKCPDHGLDLSTYCQEDRQLICVLCPVIGAHQGHQLSFLDEA | -0.254 ± 0.051
46 | VAKRKCPDHGLDLSTYCQEDRQLICVLCPRIGAHQGHQLSTLDEA | 0.019 ± 0.026
47 | VAKRKCPDHGLDLSTYCQEDRQLICVLCPKIGAHQGHQLSTLDEA | 0.096 ± 0.03
48 | VGKRKCPDHGLDLSTYCQEDRQLICVLCPVIGAHQGHQLSTLDEA | -0.04 ± 0.027
49 | VCKRKCPDHGLDLSTYCQEDRQLICVLCPVIGAHQGHQLSTLDEA | 0.04 ± 0.041
50 | VAKRKCPDHGLDLSTYCQEDWQLICVLCPVIGAHQGHQLSTLDEA | -0.24 ± 0.03
51 | VAKRKCPDHGLDLSTYCQEDPQLICVLCPVIGAHQGHQLSTLDEA | -0.691 ± 0.046
52 | VAKRKCPDHGLDLSTYCEEDRQLICVLCPVIGAHQGHQLSTLDEA | 0.008 ± 0.03
53 | VAKRKCPDHGLDLSTYCTEDRQLICVLCPVIGAHQGHQLSTLDEA | -0.06 ± 0.034
54 | VAKRKCPDHGTDLSTYCQEDRQLICVLCPVIGAHQGHQLSTLDEA | -0.147 ± 0.17
55 | VAKRKCPDHGCDLSTYCQEDRQLICVLCPVIGAHQGHQLSTLDEA | -0.009 ± 0.031
56 | VAKRKCPDHGLDLSTYPQEDRQLICVLCPVIGAHQGHQLSTLDEA | -0.751 ± 0.056
57 | VAKRKCPDHGLDLSTYFQEDRQLICVLCPVIGAHQGHQLSTLDEA | -0.334 ± 0.16
